Source: article PMC5481319

Molecular target: T1, (FNRD154A)2-His6 D154A (Escherichia coli) (UniProt P0A9E5)
T1 sequence: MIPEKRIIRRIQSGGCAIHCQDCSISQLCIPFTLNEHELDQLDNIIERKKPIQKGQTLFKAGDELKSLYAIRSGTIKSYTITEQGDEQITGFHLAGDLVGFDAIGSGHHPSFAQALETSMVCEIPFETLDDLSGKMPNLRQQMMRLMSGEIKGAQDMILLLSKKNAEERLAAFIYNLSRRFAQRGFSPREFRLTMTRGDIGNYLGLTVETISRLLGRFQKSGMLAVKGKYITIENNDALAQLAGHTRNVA
Experiment: EMSA
Conditions: 20 mM Tris, 50 mM NaCl, 40 mM EDTA ([…], pH 6.8, 30 min at 37 C

With “TCAGGCAGATAAACCCGTTCTTTGGCCTTGCCACTTAAAGTGCCAAAATCAATCTCCGTACTGATTTTCTCCGGTGTAAAAGAAAGCCCAGTATCAGAAGCCAGTGCAGCAAACGCTACAGGAGCTGAGAGTGCAGTAGCAAGAATCTTTAAGTACATAGACAAGTTAACTCCATTCCACTCGTTTGTTTTTGATAAATATTTTTTTATTTACTCGTAGTAGTCAACTGAAAAATGCTGTTTTGTTTAACGTTTGTTT (double strand) [ompT plasmid promoter PCR product]” the binding was “binds”.
